The target of assay [1] is EGFP-CENP-S (human) (UniProt Q8N2Z9). The assay is described as follows: FRET or BRET; acceptor photobleaching FRET at centromeres in living cells; EGFP donor, mCherry acceptor bleached in a 4-10 µm^2 region; E_FRET against EVAR of an unbleached region, Mann-Whitney rank-sum test. For orientation: In BRET a luciferase serves as donor, and the signal depends on an acceptor being close.

Assay [2] concerns the target CENP-S-EGFP (human) (UniProt Q8N2Z9). The description is as above.

In assay [1], “CENP-T-mCherry (from UniProt Q96BT3 1-561) (natural protein)” yielded an E FRET of 3 and a ΔE (E FRET – EVAR) of 4.5. In addition, in assay [2], the E FRET stood at 4.15 and the ΔE (E FRET – EVAR) is 4.5.

Source of the values: PMC3938055.
